In article PMC5065165, “Mechanistic Insights into Archaeal and Human Argonaute Substrate Binding and Cleavage Properties”:
Positions count from the first letter of the chain named.

Legend:
[1] = target: T1, MjAgo (Methanocaldococcus jannaschii) (UniProt Q58717); assay: equilibrium fluorescence titration; details: 5'-phosphate on guide; Stopped-flow at 25 °C, 20 nM FAM-labelled guide, same buffers as titrations (buffer composition not in the material; hybridization buffer 15 mM Hepes pH 7.4 …)
T1 sequence: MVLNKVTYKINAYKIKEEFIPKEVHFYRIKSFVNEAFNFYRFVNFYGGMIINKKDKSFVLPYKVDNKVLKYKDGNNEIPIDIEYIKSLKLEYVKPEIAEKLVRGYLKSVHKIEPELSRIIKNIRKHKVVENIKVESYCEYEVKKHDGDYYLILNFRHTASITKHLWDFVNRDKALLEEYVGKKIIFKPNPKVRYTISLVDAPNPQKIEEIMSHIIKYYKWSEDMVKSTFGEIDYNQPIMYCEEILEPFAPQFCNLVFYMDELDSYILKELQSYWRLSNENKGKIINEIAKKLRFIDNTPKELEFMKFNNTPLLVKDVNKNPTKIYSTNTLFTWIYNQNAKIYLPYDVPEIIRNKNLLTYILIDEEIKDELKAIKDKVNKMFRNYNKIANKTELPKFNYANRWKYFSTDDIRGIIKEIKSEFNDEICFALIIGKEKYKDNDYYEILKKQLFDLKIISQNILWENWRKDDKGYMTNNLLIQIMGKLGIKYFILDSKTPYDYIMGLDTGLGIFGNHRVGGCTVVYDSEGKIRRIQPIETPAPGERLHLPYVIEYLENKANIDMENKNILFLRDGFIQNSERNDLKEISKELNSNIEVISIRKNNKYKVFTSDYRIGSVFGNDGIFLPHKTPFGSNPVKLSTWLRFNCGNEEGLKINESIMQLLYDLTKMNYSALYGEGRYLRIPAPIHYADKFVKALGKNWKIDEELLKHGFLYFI

[2] = target: T2, MjAgo (Methanocaldococcus jannaschii, UniProt Q58717 1-713); assay: equilibrium fluorescence titration; Stopped-flow at 25 °C, 20 nM FAM-labelled guide, same buffers as titrations (buffer composition not in the material; hybridization buffer 15 mM Hepes pH 7.4, 50 mM K-acetate, 1 mM Mg-acetate); details: protein: recombinant; label: C6-linked 5/6-FAM at T14
T2 sequence: T1 sequence

[3] = target: hAgo2 (human, UniProt Q9UKV8 1-859); assay: stopped-flow fluorescence; three-step; k1 0.1e8 M-1 s-1; Kd n.d.; Stopped-flow at 25 °C, 20 nM FAM-labelled guide, same buffers as titrations (buffer composition not in the material; hybridization buffer 15 mM Hepes pH 7.4, 50 mM K-acetate, 1 mM Mg-acetate); details: protein: recombinant; label: C6-linked 5/6-FAM at T14
Chain of hAgo2 (Q9UKV8 whole entry): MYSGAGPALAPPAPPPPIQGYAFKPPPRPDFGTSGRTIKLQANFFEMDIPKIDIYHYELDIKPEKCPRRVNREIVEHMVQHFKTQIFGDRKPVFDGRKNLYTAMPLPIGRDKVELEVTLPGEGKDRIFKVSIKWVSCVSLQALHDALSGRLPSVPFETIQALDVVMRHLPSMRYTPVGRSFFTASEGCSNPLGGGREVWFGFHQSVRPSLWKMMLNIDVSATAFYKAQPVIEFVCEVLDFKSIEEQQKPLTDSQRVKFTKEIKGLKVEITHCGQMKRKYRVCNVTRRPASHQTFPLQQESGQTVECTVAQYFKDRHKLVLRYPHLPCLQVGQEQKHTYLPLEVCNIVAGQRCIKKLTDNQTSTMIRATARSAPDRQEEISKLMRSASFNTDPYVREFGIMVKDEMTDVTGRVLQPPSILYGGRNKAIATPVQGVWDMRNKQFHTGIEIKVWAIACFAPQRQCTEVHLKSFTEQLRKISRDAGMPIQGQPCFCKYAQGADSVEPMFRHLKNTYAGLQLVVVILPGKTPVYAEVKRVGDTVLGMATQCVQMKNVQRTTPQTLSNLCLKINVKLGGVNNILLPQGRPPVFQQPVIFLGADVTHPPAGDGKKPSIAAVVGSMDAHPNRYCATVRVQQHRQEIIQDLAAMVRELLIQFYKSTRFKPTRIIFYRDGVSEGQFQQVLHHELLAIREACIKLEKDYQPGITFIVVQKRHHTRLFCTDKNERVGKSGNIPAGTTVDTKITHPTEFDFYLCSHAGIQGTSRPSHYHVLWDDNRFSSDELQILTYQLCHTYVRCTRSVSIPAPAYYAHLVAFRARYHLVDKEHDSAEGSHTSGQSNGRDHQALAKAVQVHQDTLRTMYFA

[4] = target: T3, MjAgo Mid mutant (Tyr442Ala) (Methanocaldococcus jannaschii, UniProt Q58717 1-713, Y442A); assay: stopped-flow fluorescence; two-step, Mid binding phase missing; k3 0.002 s-1; Kd n.d.; Stopped-flow at 25 °C, 20 nM FAM-labelled guide, same buffers as titrations (buffer composition not in the material; hybridization buffer 15 mM Hepes pH 7.4, 50 mM K-acetate, 1 mM Mg-acetate); details: protein: recombinant; label: C6-linked 5/6-FAM at T14
T3 sequence: T1 sequence with Y442A

[5] = target: T2, MjAgo; assay: equilibrium fluorescence titration; target binding to preformed MjAgo-guide DNA; Stopped-flow at 25 °C, 20 nM FAM-labelled guide, same buffers as titrations (buffer composition not in the material; hybridization buffer 15 mM Hepes pH 7.4, 50 mM K-acetate, 1 mM Mg-acetate); details: protein: recombinant; label: C6-linked 5/6-FAM at guide T14; guide preloaded on Ago, target added; 3' overhang 2 nt on both strands
[6] = target: T2, MjAgo; assay: stopped-flow fluorescence; two-step, third phase undetectable; k2 0.018 s-1; Kd n.d.; Stopped-flow at 25 °C, 20 nM FAM-labelled guide, same buffers as titrations (buffer composition not in the material; hybridization buffer 15 mM Hepes pH 7.4, 50 mM K-acetate, 1 mM Mg-acetate); details: protein: recombinant; partially mismatched; guide preloaded on Ago, target added

In the case of “TAGAGGTACGTGCTGAGGCTT / GCCTCAGCACGTACCTCTATT [D-as2bFAM/D-s2b (ds siDNA, D-si2bFAM)]”, the Kd [1] is reported as 103 nM.

In the case of TAGAGGTACGTGCTGAGGCTT (ssDNA, 5'-phosphate) [D-as2bFAM (ss guide DNA)], the Kd [2] is reported as 3.4 ± 0.4 nM, the binding result [3] is reported as “binds” and the binding result [4] is reported as “binds”.

B1: D-as2bFAM guide DNA / D-s2b target DNA (dsDNA)
DNA 1: TAGAGGTACGTGCTGAGGCTT
DNA 2: GCCTCAGCACGTACCTCTATT
modifications: 5'-phosphate on guide
B1 gave a Kd [5] of 0.5 ± 0.04 nM.

B2: D-as2bFAM guide DNA / 3'-mismatched target DNA (D-s2bmm) (dsDNA)
DNA 1: TAGAGGTACGTGCTGAGGCTT
DNA 2: GCCTCAGCAGCGGGAATATTT
modifications: 5'-phosphate on guide
B2: binds [6].
